Test results reported in patent publication US20240288446A1, “METHOD FOR DIAGNOSING FIBRINOLYTIC INSUFFICIENCY RELATED TO NEUTROPHIL EXTRACELLULAR TRAPS” (Hôpitaux Universitaires de Strasbourg, priority 2019, published 2024).

Test system: septic shock plasma euglobulin fraction on fibrin-bound tPA
Test: Plasmin formation on tPA-fibrin surfaces from euglobulin fraction of septic shock plasma supplemented with plasminogen
Type: biochemical, human
Settings: plasminogen normalized to 1.5 μM
Experimental: FIG. 5 represents the Fibrinolytic activity of plasma isolated from septic shock. The fibrinolytic activity of plasma was tested by incubating the corresponding euglobulin fraction with fibrin surfaces to which tPA (50 iu/ml) was previously bound. The euglobulin fraction contains plasminogen and plasminogen fragments bearing K1, K4 and K5 as identified by mass spectrometry (see text and Supplemental file). The amount of plasmin formed was quantified by measuring the change in absorbance at A405 nm using a chromogenic substrate selective for plasmin as indicated in FIG. 3. […]
Plasminogen was quantified with a functional activity assay as described with modifications.(41) Briefly, plasmas were diluted 1:50 in assay buffer (Phosphate 80 mM, NaCl 50 mM, BSA 2 mg/ml), supplemented with 75 i.u./ml urokinase, 1 mM tranexamic acid and 0.75 mM of the plasmin-selective chromogenic substrate in a final volume of 50 μl. […] Plasminogen fragments present in plasma were initially detected by Western blot as indicated above. […] Plasmin formation on fibrin matrices was measured using the euglobulin fraction from healthy control and patient plasmas as source of plasminogen as indicated above. […] Kinetics of plasminogen transformation into plasmin was followed during 1 h by measuring the release of pNA at A405 nm and the initial velocity of the reactions were calculated as indicated above. […]

B1: purified plasminogen: Human Glu-plasminogen, purified, over 99% pure; 92-kDa single-chain proenzyme (SEQ ID NO 1) (protein, listed as Homo sapiens)
chain: EPLDDYVNTQGASLFSVTKKQLGAGSIEECAAKCEEDEEFTCRAFQYHSKEQQCVIMAENRKSSIIIRMRDVVLFEKKVYLSECKTGNGKNYRGTMSKTKNGITCQKWSSTSPHRPRFSPATHPSEGLEENYCRNPDNDPQGPWCYTTDPEKRYDYCDILECEEECMHCSGENYDGKISKTMSGLECQAWDSQSPHAHGYIPSKFPNKNLKKNYCRNPDRELRPWCFTTDPNKRWELCDIPRCTTPPPSSGPTYQCLKGTGENYRGNVAVTVSGHTCQHWSAQTPHTHNRTPENFPCKNLDENYCRNPDGKRAPWCHTTNSQVRWEYCKIPSCDSSPVSTEQLAPTAPPELTPVVQDCYHGDGQSYRGTSSTTTTGKKCQSWSSMTPHRHQKTPENYPNAGLTMNYCRNPDADKGPWCFTTDPSVRWEYCNLKKCSGTEASVVAPPPVVLLPDVETPSEEDCMFGNGKGYRGKRATTVTGTPCQDWAAQEPHRHSIFTPETNPRAGLEKNYCRNPDGDVGGPWCYTTNPRKLYDYCDVPQCAAPSFDCGKPQVEPKKCPGRVVGGCVAHPHSWPWQVSLRTRFGMHFCGGTLISPEWVLTAAHCLEKSPRPSSYKVILGAHQEVNLEPHVQEIEVSRLFLEPTRKDIALLKLSSPAVITDKVIPACLPSPNYVVADRTECFITGWGETQGTFGAGLLKEAQLPVIENKVCNRYEFLNGRVQSTELCAGHLAGGTDSCQGDSGGPLVCFEKDKYILQGVTSWGLGCARPNKPGVYVRVSRFVTWIEGVMRNN
amount of plasmin formed after plasminogen supplementation (plasma samples S1, S3, S5): increased with a trend to normality | amount of plasmin formed after plasminogen supplementation (plasma samples S2, S4, S6): insufficient or scant response
